The values that follow come from patent US20210015931A1 (KOREA INSTITUTE OF SCIENCE AND TECHNOLOGY, published 2021).

The experiment concerns the target T1, CD47 receptors on HT-29 cells (human-derived colon cancer cells) (human, UniProt Q08722 19-323).
T1 construct: whole, on cells
Briefly: confocal microscopy on HT-29 cells, uptake with and without CD47 antibody. The method, then: It was investigated whether the fusion protein-siRNA complex prepared in Example 2 is effectively taken up into cells in vitro. First, 2×10⁵ HT-29 cells, which are human-derived colon cancer cells, were seeded onto a 35-mm cover glass bottom dish. Then, after adding SIRPα protein (SIRPα), CD47 siRNA or the fusion protein-siRNA complex prepared in Example 2 (SIPRα-CD47 siRNA), the cells were cultured at 37° C. for a day. Then, CD47 SiRNA was stained red by using the TOTO3 stain. Next, after treating with the fusion protein-siRNA complex separated and purified in Example 2 at a concentration of 100 pmol/mL, the cells were cultured for 4 hours in a carbon dioxide incubator at 37° C. Then, the cells were treated with a fixative and the SIRPα protein was stained green using FITC-labeled His-tag antibody. After staining the nuclei of the cells by treating with a 4′,6-diamidino-2-phenylindole (DAPI) solution for 10 minutes, fluorescence was measured by confocal microscopy.
A mixture solution of the fusion protein-siRNA complex prepared in Example 2 and the CD47 antibody (Ab) was used as a control group.

T1 sequence (Q08722 19-323): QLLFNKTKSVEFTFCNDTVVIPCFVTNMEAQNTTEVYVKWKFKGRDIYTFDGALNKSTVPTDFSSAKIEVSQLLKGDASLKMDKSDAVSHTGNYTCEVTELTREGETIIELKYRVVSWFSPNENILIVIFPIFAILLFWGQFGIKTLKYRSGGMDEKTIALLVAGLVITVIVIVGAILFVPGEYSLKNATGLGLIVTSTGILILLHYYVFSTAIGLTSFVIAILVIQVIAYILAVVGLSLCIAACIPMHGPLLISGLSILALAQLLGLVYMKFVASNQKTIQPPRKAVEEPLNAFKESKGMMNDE

B1: fusion protein-siRNA complex prepared in Example 2 (SIRPα-CD47 siRNA) (other)
chain: EEELQIIQPDKSVLVAAGETATLRCTITSLFPVGPIQWFRGAGPGRVLIYNQRQGPFPRVTTVSDTTKRNNMDFSIRIGNITPADAGTYYCIKFRKGSPDDVEFKSGAGTELSVRAKPVDGGFLGGGGCG
modifications: CD47 siRNA (sense SEQ ID NO: 17, antisense SEQ ID NO: 18) bound 1:1 through maleimide at the 3'-end of the sense strand to the thiol group of the cysteine at the end of the fusion protein
notes: The protein was expressed from pET28a in E. coli, purified on a His-tag column and detected with a His-tag antibody; also called SIPRα-CD47 siRNA; immunoregulatory protein-siRNA complex
In the case of B1, the binding result is “binds”.
